Source: patent US20240148828A1 (SHATTUCK LABS, published 2024)
Values belong to the binder of their own block, whether it stands above or below them.

Columns and labels:
[1] = target: T1, CD19 expressed on cells (Daudi, Raji, K562-CD19) (human, UniProt P15391 20-556); experiment: flow cytometry on Daudi cells
T1 construct: whole, on cells
T1 sequence (looked up): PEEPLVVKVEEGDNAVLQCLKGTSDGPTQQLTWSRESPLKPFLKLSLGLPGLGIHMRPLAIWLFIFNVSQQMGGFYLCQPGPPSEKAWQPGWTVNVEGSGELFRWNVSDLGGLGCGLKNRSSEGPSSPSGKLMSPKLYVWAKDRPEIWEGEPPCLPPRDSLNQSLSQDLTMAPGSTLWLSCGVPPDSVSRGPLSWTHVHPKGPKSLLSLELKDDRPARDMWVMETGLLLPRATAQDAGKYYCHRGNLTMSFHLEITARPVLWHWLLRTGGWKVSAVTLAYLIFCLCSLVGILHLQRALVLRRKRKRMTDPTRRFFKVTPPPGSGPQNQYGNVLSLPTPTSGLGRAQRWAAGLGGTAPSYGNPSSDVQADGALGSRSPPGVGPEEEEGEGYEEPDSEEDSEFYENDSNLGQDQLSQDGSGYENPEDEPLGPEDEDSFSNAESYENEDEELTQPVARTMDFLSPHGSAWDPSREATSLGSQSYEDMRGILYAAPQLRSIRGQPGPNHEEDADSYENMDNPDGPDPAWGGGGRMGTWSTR

[2] = target: T2, recombinant FAP-His protein (UniProt Q12884 26-760); experiment: MSD plate assay, plate-bound FAP-His, detection with anti-BTN3A1 antibody
T2 construct: not shown: His tag

[3] = target: T3, recombinant B7H3-His protein (UniProt Q5ZPR3 29-461, limits assumed); experiment: MSD plate assay, plate-bound B7H3-His, detection with anti-BTN3A1 antibody
T3 construct: not shown: His tag
T3 sequence (looked up): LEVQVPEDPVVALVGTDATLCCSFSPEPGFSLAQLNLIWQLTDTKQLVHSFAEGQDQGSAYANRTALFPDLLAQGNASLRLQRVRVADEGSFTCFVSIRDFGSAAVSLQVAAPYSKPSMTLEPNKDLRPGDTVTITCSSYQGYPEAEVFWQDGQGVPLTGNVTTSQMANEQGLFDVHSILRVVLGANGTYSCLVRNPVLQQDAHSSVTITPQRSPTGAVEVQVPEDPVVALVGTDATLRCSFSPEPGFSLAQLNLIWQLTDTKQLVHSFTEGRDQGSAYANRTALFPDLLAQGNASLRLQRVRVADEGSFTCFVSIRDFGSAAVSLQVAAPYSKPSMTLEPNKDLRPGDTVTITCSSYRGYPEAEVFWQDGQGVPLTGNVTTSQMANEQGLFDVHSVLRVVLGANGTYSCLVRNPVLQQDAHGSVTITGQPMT

[4] = target: T4, B7H3 expressed on cells (OV-90, OVCAR3) (human, UniProt Q5ZPR3 29-534); experiment: flow cytometry on OV-90 cells
T4 construct: whole, on cells; also called B7H3+ OV90 tumor cells; B7H3+ OVCAR3 cells
T4 sequence (looked up): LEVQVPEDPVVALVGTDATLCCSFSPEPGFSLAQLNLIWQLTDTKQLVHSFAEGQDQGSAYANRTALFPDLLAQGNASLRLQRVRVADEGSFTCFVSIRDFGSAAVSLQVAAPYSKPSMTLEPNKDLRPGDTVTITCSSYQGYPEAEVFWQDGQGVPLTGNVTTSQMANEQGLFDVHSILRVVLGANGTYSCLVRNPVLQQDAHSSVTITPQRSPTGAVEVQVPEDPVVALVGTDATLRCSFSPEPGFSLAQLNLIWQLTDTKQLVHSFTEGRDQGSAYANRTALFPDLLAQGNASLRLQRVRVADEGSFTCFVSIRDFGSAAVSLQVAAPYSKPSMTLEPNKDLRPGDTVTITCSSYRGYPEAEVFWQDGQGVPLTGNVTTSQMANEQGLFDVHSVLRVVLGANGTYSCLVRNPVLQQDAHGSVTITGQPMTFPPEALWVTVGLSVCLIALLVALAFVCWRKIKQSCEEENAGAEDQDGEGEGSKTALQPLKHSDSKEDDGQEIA

[5] = target: T1, CD19 expressed on cells (Daudi, Raji, …); experiment: flow cytometry on RAJI cells (B7H3-negative, CD19-expressing), AF647 anti-Fc detection

T2 sequence (Q12884 26-760 limits assumed): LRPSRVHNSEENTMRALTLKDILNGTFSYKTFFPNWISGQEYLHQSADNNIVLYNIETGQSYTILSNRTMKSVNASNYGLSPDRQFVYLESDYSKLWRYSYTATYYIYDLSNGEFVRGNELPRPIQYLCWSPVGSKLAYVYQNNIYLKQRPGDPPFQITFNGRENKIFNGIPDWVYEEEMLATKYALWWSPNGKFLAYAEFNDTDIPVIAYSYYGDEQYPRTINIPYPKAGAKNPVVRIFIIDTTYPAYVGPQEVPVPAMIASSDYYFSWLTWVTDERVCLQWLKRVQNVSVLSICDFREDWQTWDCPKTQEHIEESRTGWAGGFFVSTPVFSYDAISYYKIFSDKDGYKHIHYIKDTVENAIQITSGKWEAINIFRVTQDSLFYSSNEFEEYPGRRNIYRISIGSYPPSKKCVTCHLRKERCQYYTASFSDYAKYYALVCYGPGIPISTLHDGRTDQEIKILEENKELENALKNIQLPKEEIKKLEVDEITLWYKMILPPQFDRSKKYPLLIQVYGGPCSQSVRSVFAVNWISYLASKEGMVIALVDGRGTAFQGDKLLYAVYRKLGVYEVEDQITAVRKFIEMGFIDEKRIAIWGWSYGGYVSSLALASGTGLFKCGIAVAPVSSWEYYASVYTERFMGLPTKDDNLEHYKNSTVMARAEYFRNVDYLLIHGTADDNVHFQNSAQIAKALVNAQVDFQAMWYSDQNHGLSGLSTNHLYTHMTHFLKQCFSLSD

binding result [1]: binds
binding result [2]: no binding
binding result [3]: no binding
B1: BTN2A1/3A1-Fc-CD19scFv heterodimeric protein (Fc fusion)
chain 1: QFIVVGPTDPILATVGENTTLRCHLSPEKNAEDMEVRWFRSQFSPAVFVYKGGRERTEEQMEEYRGRTTFVSKDISRGSVALVIHNITAQENGTYRCYFQEGRSYDEAILHLVVAGLGSKPLISMRGHEDGGIRLECISRGWYPKPLTVWRDPYGGVAPALKEVSMPDADGLFMVTTAVIIRDKSVRNMSCSINNTLLGQKKESVIFIPESFMPSVSPCAGSGSRKGGKRGSKYGPPCPPCPAPEFLGGPSVFLFPPKPKDQLMISRTPEVTCVVVDVSQEDPEVQFNWYVDGVEVHNAKTKPREEQFNSTYRVVSVLTVLHQDWLSGKEYKCKVSSKGLPSSIEKTISNATGQPREPQVYTLPPSQEEMTKNQVSLTCLVKGFYPSDIAVEWESNGQPENNYKTTPPVLDSDGSFFLYSRLTVDKSRWQEGNVFSCSVLHEALHNHYTQKSLSLSLGKDEGGEDGSDIQMTQTTSSLSASLGDRVTISCRASQDISKYLNWYQQKPDGTVKLLIYHTSRLHSGVPSRFSGSGSGTDYSLTISNLEQEDIATYFCQQGNTLPYTFGGGTKLEITGGGSGGGSGGGSEVKLQESGPGLVAPSQSLSVTCTVSGVSLPDYGVSWIRQPPRKGLEWLGVIWGSETTYYNSALKSRLTIIKDNSKSQVFLKMNSLQTDDTAIYYCAKHYYYGGSYAMDYWGQGTSVTVSS
chain 2: not shown
notes: Secreted from Expi293 or CHO cells and purified; also called BTN2A1/3A1-Fc-CD19scFv3; BTN2A1/3A1-Fc-19scFv

binding result [4]: binds
binding result [5]: no binding
B2: BTN2A1/3A1-Fc-B7H3scFv heterodimeric protein (Fc fusion)
chain 1: QFIVVGPTDPILATVGENTTLRCHLSPEKNAEDMEVRWFRSQFSPAVFVYKGGRERTEEQMEEYRGRTTFVSKDISRGSVALVIHNITAQENGTYRCYFQEGRSYDEAILHLVVAGLGSKPLISMRGHEDGGIRLECISRGWYPKPLTVWRDPYGGVAPALKEVSMPDADGLFMVTTAVIIRDKSVRNMSCSINNTLLGQKKESVIFIPESFMPSVSPCAGSGSRKGGKRGSKYGPPCPPCPAPEFLGGPSVFLFPPKPKDQLMISRTPEVTCVVVDVSQEDPEVQFNWYVDGVEVHNAKTKPREEQFNSTYRVVSVLTVLHQDWLSGKEYKCKVSSKGLPSSIEKTISNATGQPREPQVYTLPPSQEEMTKNQVSLTCLVKGFYPSDIAVEWESNGQPENNYKTTPPVLDSDGSFFLYSRLTVDKSRWQEGNVFSCSVLHEALHNHYTQKSLSLSLGKDEGGEDGSDIQMTQSPSFLSASVGDRVTITCKASQNVDTNVAWYQQKPGKAPKALIYSASYRYSGVPSRFSGSGSGTDFTLTISSLQPEDFAEYFCQQYNNYPFTFGQGTKLEIKSSGGGGSGGGGSGGGGSEVQLVESGGGLVQPGGSLRLSCAASGFTFSSFGMHWVRQAPGKGLEWVAYISSGSGTIYYADTVKGRFTISRDNAKNSLYLQMNSLRAEDTAVYYCARHGYRYEGFDYWGQGTTVTVSS
chain 2: not shown
notes: Produced by transient co-transfection of ExpiCHO cells; also called BTN2A1/3A1-Fc-B7H3scFv/B7H3scFv
